Measured values published in article PMC5986272, “Biosynthetic tailoring of existing ascaroside pheromones alters their biological function in C. elegans” (eLife, 2018).

T1: ACOX-1.1 (Caenorhabditis elegans, UniProt O62140)
T1 construct: pET-16b-acox-1.1a, expressed in E. coli and purified, homodimer
T1 sequence (O62140 1-674): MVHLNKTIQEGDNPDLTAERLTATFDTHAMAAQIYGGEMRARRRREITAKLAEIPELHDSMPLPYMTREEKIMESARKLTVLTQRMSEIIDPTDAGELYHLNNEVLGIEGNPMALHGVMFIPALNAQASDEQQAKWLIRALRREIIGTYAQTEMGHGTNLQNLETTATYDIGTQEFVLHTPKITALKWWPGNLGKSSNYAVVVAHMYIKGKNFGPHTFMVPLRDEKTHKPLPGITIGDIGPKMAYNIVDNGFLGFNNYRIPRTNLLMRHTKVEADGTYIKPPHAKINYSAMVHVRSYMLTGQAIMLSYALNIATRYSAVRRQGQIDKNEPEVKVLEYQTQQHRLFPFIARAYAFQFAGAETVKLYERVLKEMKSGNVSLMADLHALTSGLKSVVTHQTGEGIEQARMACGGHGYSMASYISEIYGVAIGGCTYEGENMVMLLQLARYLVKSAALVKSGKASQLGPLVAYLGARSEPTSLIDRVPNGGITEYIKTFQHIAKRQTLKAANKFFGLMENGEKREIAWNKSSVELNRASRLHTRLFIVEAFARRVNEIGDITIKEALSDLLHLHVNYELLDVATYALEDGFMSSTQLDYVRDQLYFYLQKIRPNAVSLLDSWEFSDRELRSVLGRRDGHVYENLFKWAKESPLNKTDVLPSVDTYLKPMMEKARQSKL


How the values were obtained:
ACOX-1.1 = target: T1, ACOX-1.1; test: LC-MS assay with MAOC-1, DHS-28, DAF-22; peroxidase-coupled H2O2 assay; type: biochemical; details: LC-MS: 40 μM substrate, 20 μM FAD, 20 μM NAD+, 200 μM CoA, pH 7.5, 30 °C; coupled: 24 µM substrate, ~23 °C
purified protein = substrate: C[C@H](CCCCCCC(=O)O)O[C@@H]1O[C@@H](C)[C@H](OC(=O)c2c[nH]c3ccccc23)C[C@H]1O; test: purified protein; type: biochemical, Caenorhabditis elegans; details: 7.5 mM ATP, 1 mM CoA, 10 mM MgCl2, 1.6 mM Triton X-100, pH 7.4, 22 °C

Molecule | LC-MS assay with MAOC-1, DHS-28, DAF-22; peroxidase-coupled H2O2 assay (ACOX-1.1) | Km (purified protein) [µM] | kcat (purified protein) [s⁻¹]
C[C@H](CCCCCCC(=O)SCCNC(=O)CCNC(=O)[C@H](O)C(C)(C)COP(=O)(O)OP(=O)(O)OC[C@H]1O[C@@H](n2cnc3c(N)ncnc32)[C@H](O)[C@@H]1OP(=O)(O)O)O[C@@H]1O[C@@H](C)[C@H](OC(=O)c2c[nH]c3ccccc23)C[C@H]1O [IC-asc-C9-CoA] | It also showed activity towards IC-asc-C9-CoA, but less than towards IC-asc-C7-CoA | – | –
ACS-7 (Caenorhabditis elegans) (protein, full-length from cDNA library, pET-22b (NdeI/XhoI), His-tagged, E. coli BL21(DE3), Ni-NTA and Superdex 200) MIFHGEQLENHDKPVHEVLLERFKVHQEKDPDNVAFVTAENEDDSLGFQQLGKKVLQISEWFVENGYKKGDVFLLASYNNWRCFAAALGAWRAGLIVSAAASQFTSFEMNYQIEDSQSQVILVDKHTLPVVQEACKNLKFVKQIISISANPPSPVIKFDVLTSRLVRNLKMPLIDPKNDIVFLPYSSGTTGKPKGVMISHLNFSMMLESSLRFFDANAKAIGLPPDFVLPYDLHFLPMYHAMGMFRTLLTSYRGTTQIMFTKFDMELMLKNIEKYSIMVLSLVPAIAVRMLNSPLLQKYDVSSLVSVTVGSAPFPESASKKLKQLLPNVNIVQGYGMTELTFATHLQSPGSPDGSVGRLVPGTSMKVKKEDGTLCGPHEIGELWIKGPQMMKGYWKKEQQTNELLDEHGFMRTGDIVYFDKNGETFICDRIKELIKVNAKQVAPAELESVILEHDDVADVCVFGVDDASSGERPVACVVSKRGRDMETSKAIMKHINQKLARYKHIKEIEFVSEIMRTGTGKLLRRAMKKAFLDAKKAKL | – | 14.5 ± 3.0 | 0.53 ± 0.08
